Results: the RNAGym collection of RNA variant scans (doi:10.7554/elife.80360)

B1: HDV Ribozyme (parent)
chain: GGCCGGCAUGGUCCCAGCCUCCUCGCUGGCGCCGGCUGGGCAACAUUCCGAGGGGACCGUCCCCUCGGUAAUGGCGAAUGGGACCCA

Variants of: B1
Experiment: self-cleavage, relative activity (ratio to wild type); higher = more cleavage; co-transcriptional

| Variant | self-cleavage |
| --- | --- |
| C57A C84A | 0.789 |
| C57A C84G | 0.727 |
| C58U C66G | 0.931 |
| C57A C61G | 1.05 |
| A56G C66A | 0.909 |
| A56G C66U | 0.937 |
| A56G A77C | 0.199 |
| C57U C75U | 0.188 |
| A56G C61U | 1.08 |
| C57A A70U | 1.25 |
| C57A G80A | 0.218 |
| C57A G80U | 0.253 |
| C58A G80A | 0.544 |
| U60C A71G | 0.886 |
| C58U G59C | 0.923 |
| C58U G59A | 1.12 |
| G59U A70C | 0.77 |
| G59U A70G | 1.12 |
| G59U A70U | 0.923 |
| A56U C75A | 0.0875 |
| A56U C75G | 0.151 |
| G55U G59U | 1.02 |
| G59U C64A | 0.899 |
| C58U G67U | 1.12 |

| Variant | self-cleavage |
| --- | --- |
| C57G C63G | 1.09 |
| C57G C63U | 1.12 |
| C57G C64U | 1.05 |
| C57G C64A | 1.04 |
| C57G C64G | 0.849 |
| G55U A83C | 0.554 |
| G59U G82U | 0.554 |
| U60C A77C | 0.575 |
| G55U C57G | 0.997 |
| A56C C62A | 0.935 |
| C58A U65G | 1.05 |
| A56U C61U | 0.755 |
| A56U U72G | 0.734 |
| A56U G81U | 0.381 |
| A56U G81C | 0.312 |
| C58G C63U | 1.04 |
| C57U U65G | 0.919 |
| C57U U65A | 0.917 |
| A56G U72A | 0.643 |
| A56G U72C | 0.782 |
| A56U A77U | 0.623 |
| C57U C63G | 1.12 |
| C57U C63U | 0.958 |
| A56C A87U | 0.986 |

| Variant | self-cleavage |
| --- | --- |
| C58A A78U | 0.424 |
| C57U G80C | 0.145 |
| C57U A83U | 0.475 |
| C57U U69C | 0.831 |
| C57U U69A | 1.15 |
| C57G C62A | 0.957 |
| C58U U69C | 0.95 |
| G59U U65C | 1.15 |
| A56G G76C | 1.16 |
| C58U C64G | 0.895 |
| C57A G74U | 0.356 |
| A56C A71U | 1.11 |
| A56C A71C | 0.997 |
| C58A A70G | 0.807 |
| C58A A70C | 1.04 |
| A56U G76C | 1.14 |
| A56U G76U | 0.95 |
| C57A A71U | 0.929 |
| A56C C58G | 1.26 |
| G59U A87C | 1.17 |
| G59U A87U | 1.09 |
| C58A G68A | 0.95 |
| C58G C66A | 1.15 |
| C58G C66G | 0.95 |

| Variant | self-cleavage |
| --- | --- |
| A56C A70C | 1.12 |
| A56C A70G | 1.05 |
| A56C A70U | 1.16 |
| C58G G67A | 1.28 |
| G59U U60C | 1.37 |
| G59U U60G | 0.88 |
| A56G U65C | 1.05 |
| G55U C62U | 0.925 |
| G55U C62A | 0.973 |
| G55U A56U | 0.797 |
| C58A C66G | 1.25 |
| G55U C64G | 0.781 |
| A56C A77G | 1.02 |
| G55U G80A | 0.477 |
| G59A G82U | 0.467 |
| C57G U79C | 0.598 |
| C57G U79A | 0.802 |
| C57G C61G | 1.08 |
| C57A G82U | 0.585 |
| C58U C75G | 0.116 |
| C58A G73A | 0.787 |
| C58U U65A | 1.17 |
| C57A U69C | 0.892 |
| C57A U69A | 0.969 |

| Variant | self-cleavage |
| --- | --- |
| C58G U79G | 0.776 |
| C57G C84G | 0.831 |
| G59A A78C | 0.282 |
| C57G U72G | 0.733 |
| G59C U65A | 1.17 |
| G59C U65G | 0.95 |
| G59U C63G | 0.767 |
| G59U C63U | 1.04 |
| G59U C66U | 0.875 |
| C58G U69G | 1.17 |
| C58G U69C | 1.36 |
| C58G U69A | 0.911 |
| A56U A83U | 0.318 |
| A56U A83C | 0.499 |
| C57A A78G | 0.63 |
| G59U C86U | 0.852 |
| G59C | 1.01 |
| G59A | 1.02 |
| G59U | 0.997 |
| C57A A83U | 0.554 |
| C58U U79G | 0.612 |
| C58U U79C | 0.38 |
| A56G C86G | 1.17 |
| G59A A71G | 0.984 |

| Variant | self-cleavage |
| --- | --- |
| G59A A71U | 0.929 |
| U60A C66A | 0.972 |
| U60A C66U | 1.12 |
| U60A C66G | 0.878 |
| G55U U79A | 0.635 |
| A56C U65G | 0.985 |
| A56G U69G | 0.831 |
| A56U A70C | 0.811 |
| A56U A70G | 1.07 |
| G59U U69C | 0.852 |
| G59C G67U | 1.09 |
| G59C G67A | 1.06 |
| A56G A87G | 0.929 |
| A56G A87U | 0.897 |
| U60A C63G | 0.851 |
| C57A A87C | 1.05 |
| C57A A87U | 1.13 |
| C57U A87G | 0.979 |
| C57U A87C | 1.17 |
| A56G U79A | 0.277 |
| A56G U79C | 0.242 |
| A56U U65G | 0.928 |
| A56U U65C | 1.04 |
| C57A C85G | 0.748 |

| Variant | self-cleavage |
| --- | --- |
| C57A C85A | 1.05 |
| C57G G81U | 0.388 |
| C57G A71C | 0.852 |
| U60A G74A | 0.422 |
| C58A U79C | 0.554 |
| C58G G76A | 1 |
| C58G G76C | 0.914 |
| A56U G73C | 0.698 |
| A56U G73U | 0.415 |
| A56U G73A | 0.752 |
| U60A C85G | 0.673 |
| U60A C85U | 0.912 |
| C57U C58U | 1.3 |
| C57G A78C | 0.0959 |
| C58A U69C | 1.17 |
| U60A U72A | 0.739 |
| C57U C62A | 0.941 |
| A56U G82A | 0.543 |
| A56U G82U | 0.462 |
| C57U C66A | 0.878 |
| C57U C66G | 1.07 |
| G59U U79A | 0.929 |
| U60A U79G | 0.807 |
